Paper PMC7160150, “Transcriptional repression of GIF1 by the KIX-PPD-MYC repressor complex controls seed size in Arabidopsis”

B1: probe A (dsDNA)
DNA 1: TAAAGTATGACTCGTCACGTGACCTCCTCTTCTTCGC
DNA 2: GCGAAGAAGAGGAGGTCACGTGACGAGTCATACTTTA
B2: probe A-m (dsDNA)
DNA 1: TAAAGTATGACTCGTAGCCGTACCTCCTCTTCTTCGC
DNA 2: GCGAAGAAGAGGAGGTACGGCTACGAGTCATACTTTA
B3: unlabelled probe A (dsDNA)
DNA 1: B1 DNA 1
DNA 2: B1 DNA 2

How the values were obtained:
MBP-MYC3 [1] = biological target: T1, MBP-MYC3 (Arabidopsis thaliana (Col-0), UniProt Q9FIP9 1-592); assay: EMSA; EMSA kit (Thermo), room temperature, 20 min; binding buffer not stated (protein extraction buffer: 50 mM HEPES pH 7.5, 150 mM NaCl, 1 mM EGTA, 1% Triton X-100); conditions: protein: recombinant; tags: MBP; chain copies: 2; label: 5'-biotin
T1 sequence (Q9FIP9 whole entry): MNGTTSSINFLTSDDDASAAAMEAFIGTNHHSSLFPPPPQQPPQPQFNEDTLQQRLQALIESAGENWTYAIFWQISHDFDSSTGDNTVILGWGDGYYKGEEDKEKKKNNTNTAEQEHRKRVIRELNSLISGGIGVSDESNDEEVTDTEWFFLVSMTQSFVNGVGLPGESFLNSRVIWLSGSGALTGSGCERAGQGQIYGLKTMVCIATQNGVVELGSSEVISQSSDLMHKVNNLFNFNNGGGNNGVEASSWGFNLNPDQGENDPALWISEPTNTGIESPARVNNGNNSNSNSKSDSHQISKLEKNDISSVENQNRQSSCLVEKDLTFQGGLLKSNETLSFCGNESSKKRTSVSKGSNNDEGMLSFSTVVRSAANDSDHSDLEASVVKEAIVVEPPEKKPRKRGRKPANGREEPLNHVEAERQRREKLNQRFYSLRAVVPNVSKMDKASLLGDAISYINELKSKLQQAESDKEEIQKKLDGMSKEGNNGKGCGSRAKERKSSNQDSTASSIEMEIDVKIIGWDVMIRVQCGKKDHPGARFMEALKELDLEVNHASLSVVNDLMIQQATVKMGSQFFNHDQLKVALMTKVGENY

MBP-MYC4 [2] = biological target: T2, MBP-MYC4 (Arabidopsis thaliana (Col-0), UniProt O49687 1-589); assay: as above; conditions: protein: recombinant; tags: MBP; chain copies: 2; label: 5'-biotin
T2 sequence (O49687 whole entry): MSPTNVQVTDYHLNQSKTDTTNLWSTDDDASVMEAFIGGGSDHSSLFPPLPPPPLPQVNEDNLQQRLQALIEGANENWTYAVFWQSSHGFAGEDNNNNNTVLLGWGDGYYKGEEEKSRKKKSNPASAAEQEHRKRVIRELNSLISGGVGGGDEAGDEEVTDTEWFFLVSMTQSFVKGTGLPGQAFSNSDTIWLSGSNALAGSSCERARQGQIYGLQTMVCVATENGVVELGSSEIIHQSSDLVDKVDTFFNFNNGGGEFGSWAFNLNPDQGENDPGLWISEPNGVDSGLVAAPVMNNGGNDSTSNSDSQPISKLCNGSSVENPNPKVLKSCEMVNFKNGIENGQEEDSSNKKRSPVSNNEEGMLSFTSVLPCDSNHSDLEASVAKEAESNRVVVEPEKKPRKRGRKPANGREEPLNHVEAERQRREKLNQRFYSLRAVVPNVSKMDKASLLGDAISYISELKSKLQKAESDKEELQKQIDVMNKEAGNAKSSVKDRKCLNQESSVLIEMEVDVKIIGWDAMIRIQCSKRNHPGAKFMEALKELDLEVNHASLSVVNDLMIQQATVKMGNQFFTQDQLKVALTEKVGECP

MBP-MYC3 [3] = biological target: T1, MBP-MYC3; assay: competition; competes with biotin probe A; EMSA kit (Thermo), room temperature, 20 min; binding buffer not stated (protein extraction buffer: 50 mM HEPES pH 7.5, 150 mM NaCl, 1 mM EGTA, 1% Triton X-100); conditions: protein: recombinant; tags: MBP; chain copies: 2
MBP-MYC4 [4] = biological target: T2, MBP-MYC4; assay: as above; conditions: protein: recombinant; tags: MBP; chain copies: 2

Row | Binder | binding result (MBP-MYC3 [1]) | binding result (MBP-MYC4 [2]) | binding result (MBP-MYC3 [3]) | binding result (MBP-MYC4 [4])
1 | B1 | binds | binds | – | –
2 | B2 | no binding | no binding | – | –
3 | B3 | – | – | binds | binds
